System: MCF-7 cells

In the case of `COc1cc(N=Nc2ccc(C)cc2[N+](=O)[O-])c(C)cc1N=Nc1ccc(N(C)CCCC(=O)NCCCC[C@H](NC(=O)CNC(=O)[C@H](CC(C)C)NC(=O)[C@H](Cc2ccccc2)NC(=O)CNC(=O)c2ccc3c(c2)C(=O)OC32c3ccc(O)cc3Oc3cc(O)ccc32)C(=O)NCC(=O)N[C@@H](CCCNC(=N)N)C(=O)N[C@@H](CCCCN)C(=O)N[C@@H](CCCCN)C(=O)N[C@@H](CCCNC(=N)N)C(=O)N[C@@H](CCCNC(=N)N)C(=O)N[C@@H](CCC(N)=O)C(=O)N[C@@H](CCCNC(=N)N)C(=O)N[C@@H](CCCNC(=N)N)C(=O)N[C@@H](CCCNC(=N)N)C(=O)N2CCC[C@H]2C(=O)N2CCC[C@H]2C(=O)N[C@@H](CCC(N)=O)C(N)=O)cc1` [TFB], the “toxicity to MCF-7 cells (cell viability)” value is reported as “little toxicity”.

Reference: patent US20140113322A1, “SUPRAMOLECULAR NANOBEACON IMAGING AGENTS AS PROTEASE SENSORS” (priority 2012, published 2014)
